Measured values taken from US20210356467.

Key:
[1] = target: CK1a (P48729) expressed in-frame upstream to the N-CAT fragment (UniProt P48729)
[2] = target: GSPT1 (P15170) expressed in-frame upstream to the N-CAT fragment (UniProt P15170)
[3] = target: IKZF1 (Q13422) expressed in-frame upstream to the N-CAT fragment (UniProt Q13422)
IKZF1 (Q13422) expressed in-frame upstream to the N-CAT fragment, sequence (Q13422 other isoform, or with tags, fused parts or gaps): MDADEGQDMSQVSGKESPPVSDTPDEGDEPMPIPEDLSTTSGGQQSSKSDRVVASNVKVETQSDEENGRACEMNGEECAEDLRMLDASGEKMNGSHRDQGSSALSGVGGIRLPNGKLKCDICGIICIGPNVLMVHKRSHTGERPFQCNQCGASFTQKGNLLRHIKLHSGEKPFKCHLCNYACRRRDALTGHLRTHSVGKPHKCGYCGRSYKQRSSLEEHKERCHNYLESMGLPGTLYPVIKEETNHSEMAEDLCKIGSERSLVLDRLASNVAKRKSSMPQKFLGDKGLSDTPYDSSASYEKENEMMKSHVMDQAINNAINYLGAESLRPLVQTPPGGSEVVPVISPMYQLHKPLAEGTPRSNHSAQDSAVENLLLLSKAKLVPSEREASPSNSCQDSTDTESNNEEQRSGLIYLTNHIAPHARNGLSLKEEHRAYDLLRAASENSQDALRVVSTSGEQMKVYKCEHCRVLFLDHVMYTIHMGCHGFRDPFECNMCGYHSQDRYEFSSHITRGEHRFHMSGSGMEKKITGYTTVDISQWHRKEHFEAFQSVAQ

Cereblon-E2 (Ubc4) fusion, sequence (chain, as listed by the source): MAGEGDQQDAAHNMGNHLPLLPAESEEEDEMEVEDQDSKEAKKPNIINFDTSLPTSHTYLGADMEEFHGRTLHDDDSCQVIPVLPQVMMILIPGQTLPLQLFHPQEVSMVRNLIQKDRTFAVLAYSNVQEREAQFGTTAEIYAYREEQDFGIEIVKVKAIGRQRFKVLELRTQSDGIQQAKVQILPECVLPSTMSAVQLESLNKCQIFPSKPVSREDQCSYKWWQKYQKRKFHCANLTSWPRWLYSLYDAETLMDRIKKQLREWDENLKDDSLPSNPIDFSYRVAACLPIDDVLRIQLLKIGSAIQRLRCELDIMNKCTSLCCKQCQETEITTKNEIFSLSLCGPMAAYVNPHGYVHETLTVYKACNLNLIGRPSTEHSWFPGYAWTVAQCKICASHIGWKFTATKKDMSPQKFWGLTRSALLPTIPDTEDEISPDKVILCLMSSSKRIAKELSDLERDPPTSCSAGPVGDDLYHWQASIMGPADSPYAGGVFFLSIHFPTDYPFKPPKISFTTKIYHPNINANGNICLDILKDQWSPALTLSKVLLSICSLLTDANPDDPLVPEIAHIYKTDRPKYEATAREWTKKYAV
CK1a (P48729) expressed in-frame upstream to the N-CAT fragment, sequence (P48729 other isoform, or with tags, fused parts or gaps): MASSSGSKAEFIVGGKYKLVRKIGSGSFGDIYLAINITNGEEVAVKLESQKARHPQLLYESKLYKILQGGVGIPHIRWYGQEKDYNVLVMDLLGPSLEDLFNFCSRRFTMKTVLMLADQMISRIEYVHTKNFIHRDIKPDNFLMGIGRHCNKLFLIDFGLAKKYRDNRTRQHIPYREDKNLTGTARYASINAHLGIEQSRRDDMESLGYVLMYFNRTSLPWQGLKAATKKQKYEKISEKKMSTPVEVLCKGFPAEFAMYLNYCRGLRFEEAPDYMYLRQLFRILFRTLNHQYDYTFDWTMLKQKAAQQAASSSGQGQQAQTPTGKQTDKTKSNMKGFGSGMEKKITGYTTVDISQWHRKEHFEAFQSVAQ
GSPT1 (P15170) expressed in-frame upstream to the N-CAT fragment, sequence (P15170 other isoform, or with tags, fused parts or gaps): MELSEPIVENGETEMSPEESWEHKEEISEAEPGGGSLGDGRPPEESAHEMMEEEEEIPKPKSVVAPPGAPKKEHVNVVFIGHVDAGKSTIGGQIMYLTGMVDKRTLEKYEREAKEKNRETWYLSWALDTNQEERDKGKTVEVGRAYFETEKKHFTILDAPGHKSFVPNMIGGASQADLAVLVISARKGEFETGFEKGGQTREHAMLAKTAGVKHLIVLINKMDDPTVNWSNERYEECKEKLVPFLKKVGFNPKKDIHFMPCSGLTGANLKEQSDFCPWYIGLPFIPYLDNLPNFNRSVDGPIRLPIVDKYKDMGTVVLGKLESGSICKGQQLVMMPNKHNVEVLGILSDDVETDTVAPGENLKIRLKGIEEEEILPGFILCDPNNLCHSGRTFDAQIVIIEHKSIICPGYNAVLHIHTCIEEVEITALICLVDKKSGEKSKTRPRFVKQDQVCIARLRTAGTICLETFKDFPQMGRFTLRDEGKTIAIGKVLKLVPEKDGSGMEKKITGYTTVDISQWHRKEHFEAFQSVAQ

## Cereblon-E2 (Ubc4) fusion
[1]
  growth of E. coli (OD600) under chloramphenicol, split-CAT ubiquitylation selection, with Lenalidomide (LLD): Thalidomide and Lenalidomide (TLD/LLD) significantly promoted the growth of E. coli that express CK1a
  growth of E. coli (OD600) under chloramphenicol, split-CAT ubiquitylation selection, with Thalidomide (TLD): Thalidomide and Lenalidomide (TLD/LLD) significantly promoted the growth of E. coli that express CK1a
[2]
  growth of E. coli (OD600) under chloramphenicol, split-CAT ubiquitylation selection, with CC-885: CC-885 significantly promoted the growth of E. coli that express GSPT1
[3]
  dose response of E. coli growth (OD600) to TLD and LLD, split-CAT selection: the selection system maintains this well-known optimum characteristic response to TLD and LLD
  growth of E. coli (OD600) under chloramphenicol, split-CAT ubiquitylation selection, with Lenalidomide (LLD): Thalidomide and Lenalidomide (TLD/LLD) significantly promoted the growth of E. coli that express IKZF1
  growth of E. coli (OD600) under chloramphenicol, split-CAT ubiquitylation selection, with Thalidomide (TLD): Thalidomide and Lenalidomide (TLD/LLD) significantly promoted the growth of E. coli that express IKZF1
